Non-standard residues stand in square brackets, D forms with d. Primed or numbered codes have the meaning given here. DO3A10CM″ = chelating group at the N-terminus (X in the sequence tables); Bpa = N[C@@H](Cc1ccc(C(=O)c2ccccc2)cc1)C(=O)O; d2Nal = N[C@H](Cc1ccc2ccccc2c1)C(=O)O; DO3A10CM = not defined here; Chmgly = not defined here; Apgly = not defined here; Bugly = not defined here; Cegly = not defined here; Etgly = not defined here; Hegly = not defined here; Iegly = not defined here; Ipgly = not defined here; Mpgly = not defined here; Prgly = not defined here; Tdgly = not defined here; Btd = not defined here; Tha = not defined here; azaGly = NNC(=O)O; Sar = CNCC(=O)O

Consider 37 molecules from patent US20120045393A1 (priority 2009, published 2012).

In this test the target is LHRH binding sites on EFO-27 human ovarian cancer cells (human). Briefly: competition with [125I-Tyr8]BRU-2477 on EFO-27 cells.

By EC50 is commonly meant the concentration giving half of the maximal effect. Molecule {DO3A10CM″}-[Sar]HWSH[dR]WYP[azaGly]-NH2 [BRU-2758] showed an EC50 of 10 µM.

{DO3A10CM″}-G[Mephe]HWSHRW[Bpa]P[azaGly]-NH2 (not fully specified (residue 7)) [BRU-2755] returned an EC50 of 1.29 µM. The same measure, in the same setting: then XHWSHXWXPX (DO3A10CM on N-terminus; AA1 Sar; AA6 Darg; AA8 Tyr(OBz); AA10 azaGly-NH2) [BRU-2820], with 1.57 µM.

Molecule XHWSHXWXPX (DO3A10CM on N-terminus; AA1 Sar; AA6 Dharg; AA8 Bpa4; AA10 azaGly-NH2) [BRU-2893] displayed an EC50 of 2.6 µM and a times lower binding than BRU-2443 of 2.7 times.

In turn, DO3A10CM-G[Mpgly]HWSH[dR]W[Bpa]P[azaGly]-NH2 (reading uncertain) [BRU-2793] registered an EC50 of 1.34 µM.

B1: BRU-2957 (peptide)
peptide: XRWXHXWXPX
modifications: DO3A10CM on N-terminus; AA1 Dnal2; AA4 Pal4; AA6 Darg; AA8 Bpa4; AA10 azaGly-NH2
Molecule B1 showed an EC50 of 0.84 µM. For DO3A10CM-[Sar]HWSH[Btd]W[Bpa]P[azaGly]-NH2 (reading uncertain) [BRU-3000], the EC50 is 4.23 µM and the times lesser binding efficacy than BRU-2443 was found to be 4.5 times. With DO3A10CM-G[Bugly]HWSH[dR]W[Bpa]P[azaGly]-NH2 (reading uncertain) [BRU-2791], the EC50 is 4.03 µM. Take XRWSXXWXPX (DO3A10CM on N-terminus; AA1 Dnal2; AA5 Cit; AA6 Darg; AA8 Bpa4; AA10 azaGly-NH2) [BRU-3030]: the EC50 was 0.93 µM.

In turn, DO3A10CM-G[Iegly]HWSHRW[Bpa]P[azaGly]-NH2 (not fully specified (residue 7); reading uncertain; also: AA6 Darg prints R) [BRU-2879] showed an EC50 of 1.03 µM.

On to DO3A10CM-G[Chmgly]HWSHRW[Bpa]P[azaGly]-NH2 (not fully specified (residue 7); reading uncertain; also: AA6 Darg prints R) [BRU-2877], for which the EC50 was determined as 0.9 µM. Molecule XHWSHXWXPX (DO3A10CM on N-terminus; AA1 Sar; AA6 Darg; AA8 Nal1; AA10 azaGly-NH2) [BRU-2720] came in with an EC50 of 0.54 µM. On the same count and under the same terms, the result for XHWSHXWXPX (DO3A10CM on N-terminus; AA1 Sar; AA6 Darg; AA8 Aic2; AA10 azaGly-NH2) [BRU-2764] reads 4.31 µM; that for DO3A10CM-G[Etgly]HWSH[dR]W[Bpa]P[azaGly]-NH2 (reading uncertain) [BRU-2789], 5.12 µM.

B2: BRU-3112 (peptide)
peptide: XRXSHXWXPX
modifications: DO3A10CM on N-terminus; AA1 Dnal2; AA3 Dtrp; AA6 Darg; AA8 Bpa4; AA10 azaGly-NH2
Molecule B2 displayed a half-maximal effective concentration (EC50) of 0.85 µM. This EC50 lies about 6-fold lower than the previous one.

On to {DO3A10CM″}-[Sar][Tha]WS[Tha][dR]W[Bpa]P[azaGly]-NH2 (reading uncertain) [BRU-2762], for which the EC50 was found to be 15 µM. The same measure, in the same setting: the result for DO3A10CM-G[Ipgly]HWSH[dR]W[Bpa]P[azaGly]-NH2 (reading uncertain) [BRU-2790] reads 3.3 µM; that for DO3A10CM-G[Chgly]HWSHRW[Bpa]P[azaGly]-NH2 (reading uncertain; also: AA6 Darg prints R) [BRU-2872], 2.9 µM. The molecule XHWSHXWXPX (DO3A10CM on N-terminus; AA1 Sar; AA6 Darg; AA8 Pal3; AA10 azaGly-NH2) [BRU-2726] returned an EC50 of 17.4 µM. The same measure, in the same setting: the result for DO3A10CM-G[Prgly]HWSH[dR]W[Bpa]P[azaGly]-NH2 (reading uncertain) [BRU-2794] reads 1.3 µM. Still for that read-out and setting: then XHWSHXWXPX (DO3A10CM on N-terminus; AA1 Sar; AA6 Darg; AA8 Dtyr(OBz); AA10 azaGly-NH2) [BRU-2819], with 0.77 µM; and XHWSHXWXPX (DO3A10CM on N-terminus; AA1 Sar; AA6 Darg; AA8 Lys(isp); AA10 azaGly-NH2) [BRU-2675], with 12.3 µM; and DO3A10CM-G[Tdgly]HWSHRW[Bpa]P[azaGly]-NH2 (not fully specified (residue 7); reading uncertain; also: AA6 Darg prints R) [BRU-2878], with 4.48 µM. Regarding DO3A10CM-G[Hegly]HWSHRW[Bpa]P[azaGly]-NH2 (reading uncertain; also: AA6 Darg prints R) [BRU-2873], the EC50 worked out at 1.33 µM. This EC50 lies about 3.4-fold lower than the previous one.

Regarding XHWSHXWXPX (DO3A10CM on N-terminus; AA1 Sar; AA6 Darg; AA8 Tha; AA10 azaGly-NH2) [BRU-2742], the EC50 came out at 10 µM. The same measure, in the same setting: the result for {DO3A10CM″}-[Sar]HWSH[dS]W[Bpa]P[azaGly]-NH2 [BRU-2761] reads 13.6 µM. XRWSHXWXPX (DO3A10CM on N-terminus; AA1 Mednal2; AA6 Darg; AA8 Bpa4; AA10 azaGly-NH2) [BRU-2965] had an EC50 of 0.58 µM and a fold reduction in binding potency against BRU-2813 of 2 fold. XHWSHXWXPX (DO3A10CM on N-terminus; AA1 Mednal2; AA6 Darg; AA8 Bpa4; AA10 azaGly-NH2) [BRU-3003] showed an EC50 of 0.76 µM. The same measure, in the same setting: the result for XHWSHXWXPX (DO3A10CM on N-terminus; AA1 Sar; AA6 Darg; AA8 Ing2; AA10 azaGly-NH2) [BRU-2765] reads 8.71 µM. Still for that read-out and setting: then XHWSHXWXPX (DO3A10CM on N-terminus; AA1 Sar; AA6 Darg; AA8 Amfe4; AA10 azaGly-NH2) [BRU-2760], with 3.55 µM.

B3: BRU-3109 (peptide)
peptide: XRXSHXWXPX
modifications: DO3A10CM on N-terminus; AA1 Dnal2; AA3 Pal3; AA6 Darg; AA8 Bpa4; AA10 azaGly-NH2
In turn, B3 came in with an EC50 of 0.73 µM. Same read-out and setting: the result for XRWSXXWXPX (DO3A10CM on N-terminus; AA1 Dnal2; AA5 Tha; AA6 Darg; AA8 Bpa4; AA10 azaGly-NH2) [BRU-2958] reads 0.71 µM; that for DO3A10CM-G[Cegly]HWSHRW[Bpa]P[azaGly]-NH2 (not fully specified (residue 7); reading uncertain; also: AA6 Darg prints R) [BRU-2875], 8.7 µM; that for DO3A10CM-[d2Nal]RWSR[dW]W[Bpa]P[azaGly]-NH2 (reading uncertain) [BRU-3001], 3.28 µM. Molecule DO3A10CM-G[Apgly]HWSHRW[Bpa]P[azaGly]-NH2 (not fully specified (residue 7); reading uncertain; also: AA6 Darg prints R) [BRU-2874] displayed an EC50 of 1.97 µM. Same read-out and setting: the result for {DO3A10CM″}-[Sar][His(pime)]WS[Tha][dR]W[Bpa]P[azaGly]-NH2 (reading uncertain) [BRU-2739] reads 5.28 µM. Molecule XHWSHXWXPX (DO3A10CM on N-terminus; AA1 Sar; AA6 Darg; AA8 Cha; AA10 azaGly-NH2) [BRU-2718] had an EC50 of 0.63 µM.
